Test results reported in publication PMC7870652, “Single-molecule force spectroscopy reveals the dynamic strength of the hair-cell tip-link connection” (Nature Communications, 2021).

Columns and labels:
[1] = target: T1, single-bond CDH23 fusion protein (EC1-5/EC3-5 Fc heterodimer with one EC1-2 binding domain) (mouse, SNAPtag coupled to a benzylguanine DNA tether); assay: single-molecule force spectroscopy (dual-beam optical tweezers); each protein held on a streptavidin-coated silica bead through a DNA tether on its SNAPtag (R113G proteins and fast loading rates: biotinylated directly with BG-Biotin); room temperature, TBS-TB + Ca^2+ buffer (20 mM Tris, 125 mM NaCl, pH 7.4, 0.02% Tween-20, blocking reagent), 2 mM Ca^2+; loading rates 0.39-377.8 pN s^−1; constants from fits of the …; conditions: both partners purified
T1 construct: signal peptide in the construct (native; its cleavage on secretion was confirmed); cadherin-23, mouse, EC1-5; signal peptide in the construct (native, preserved by the deletion); cadherin-23, mouse, the EC1-5 construct (base pairs 408-2066 of NM_023370) from which amino acids 25-228 (EC1-2) were deleted, leaving EC3-5; 408-2066 is 1659 bp (553 codons), probably residues 1-553 of the precursor; …

[2] = target: T2, dimeric full-ectodomain CDH23 fusion protein (mouse, UniProt Q99PF4 24-3064, SNAPtag coupled to a benzylguanine DNA tether or BG-Biotin (force spectroscopy), or to a benzylguanine-PEG15-biotin linker (biolayer interferometry)); assay: BLI; CDH23 biotinylated on its SNAPtag and immobilised on streptavidin-coated PEG-biotin aminopropylsilane sensors; 10–300 nM PCDH15 in solution; TBS-Tween + Ca^2+ buffer, 2 mM Ca^2+; traces of a drift sensor and of PCDH15 lacking EC1-2 subtracted; dissociation fitted with a single exponential; on-rates measured at 300 nM PCDH15 (effective on-rate); Octet Red384; conditions: both partners purified
T2 construct: cadherin-23, mouse, the entire extracellular domain up to the last hydrophilic amino acid before the transmembrane domain (27 EC domains); The two halves carry opposing Fc heterodimerisation domains and the same cadherin ectodomain; also called full-length dimer; CDH23 dimer; source: HEK Expi293 cells, co-transfected, secreted; purified (Ni-NTA or TALON, size-exclusion on Superose 6 Increase)
T2 sequence (Q99PF4 24-3064): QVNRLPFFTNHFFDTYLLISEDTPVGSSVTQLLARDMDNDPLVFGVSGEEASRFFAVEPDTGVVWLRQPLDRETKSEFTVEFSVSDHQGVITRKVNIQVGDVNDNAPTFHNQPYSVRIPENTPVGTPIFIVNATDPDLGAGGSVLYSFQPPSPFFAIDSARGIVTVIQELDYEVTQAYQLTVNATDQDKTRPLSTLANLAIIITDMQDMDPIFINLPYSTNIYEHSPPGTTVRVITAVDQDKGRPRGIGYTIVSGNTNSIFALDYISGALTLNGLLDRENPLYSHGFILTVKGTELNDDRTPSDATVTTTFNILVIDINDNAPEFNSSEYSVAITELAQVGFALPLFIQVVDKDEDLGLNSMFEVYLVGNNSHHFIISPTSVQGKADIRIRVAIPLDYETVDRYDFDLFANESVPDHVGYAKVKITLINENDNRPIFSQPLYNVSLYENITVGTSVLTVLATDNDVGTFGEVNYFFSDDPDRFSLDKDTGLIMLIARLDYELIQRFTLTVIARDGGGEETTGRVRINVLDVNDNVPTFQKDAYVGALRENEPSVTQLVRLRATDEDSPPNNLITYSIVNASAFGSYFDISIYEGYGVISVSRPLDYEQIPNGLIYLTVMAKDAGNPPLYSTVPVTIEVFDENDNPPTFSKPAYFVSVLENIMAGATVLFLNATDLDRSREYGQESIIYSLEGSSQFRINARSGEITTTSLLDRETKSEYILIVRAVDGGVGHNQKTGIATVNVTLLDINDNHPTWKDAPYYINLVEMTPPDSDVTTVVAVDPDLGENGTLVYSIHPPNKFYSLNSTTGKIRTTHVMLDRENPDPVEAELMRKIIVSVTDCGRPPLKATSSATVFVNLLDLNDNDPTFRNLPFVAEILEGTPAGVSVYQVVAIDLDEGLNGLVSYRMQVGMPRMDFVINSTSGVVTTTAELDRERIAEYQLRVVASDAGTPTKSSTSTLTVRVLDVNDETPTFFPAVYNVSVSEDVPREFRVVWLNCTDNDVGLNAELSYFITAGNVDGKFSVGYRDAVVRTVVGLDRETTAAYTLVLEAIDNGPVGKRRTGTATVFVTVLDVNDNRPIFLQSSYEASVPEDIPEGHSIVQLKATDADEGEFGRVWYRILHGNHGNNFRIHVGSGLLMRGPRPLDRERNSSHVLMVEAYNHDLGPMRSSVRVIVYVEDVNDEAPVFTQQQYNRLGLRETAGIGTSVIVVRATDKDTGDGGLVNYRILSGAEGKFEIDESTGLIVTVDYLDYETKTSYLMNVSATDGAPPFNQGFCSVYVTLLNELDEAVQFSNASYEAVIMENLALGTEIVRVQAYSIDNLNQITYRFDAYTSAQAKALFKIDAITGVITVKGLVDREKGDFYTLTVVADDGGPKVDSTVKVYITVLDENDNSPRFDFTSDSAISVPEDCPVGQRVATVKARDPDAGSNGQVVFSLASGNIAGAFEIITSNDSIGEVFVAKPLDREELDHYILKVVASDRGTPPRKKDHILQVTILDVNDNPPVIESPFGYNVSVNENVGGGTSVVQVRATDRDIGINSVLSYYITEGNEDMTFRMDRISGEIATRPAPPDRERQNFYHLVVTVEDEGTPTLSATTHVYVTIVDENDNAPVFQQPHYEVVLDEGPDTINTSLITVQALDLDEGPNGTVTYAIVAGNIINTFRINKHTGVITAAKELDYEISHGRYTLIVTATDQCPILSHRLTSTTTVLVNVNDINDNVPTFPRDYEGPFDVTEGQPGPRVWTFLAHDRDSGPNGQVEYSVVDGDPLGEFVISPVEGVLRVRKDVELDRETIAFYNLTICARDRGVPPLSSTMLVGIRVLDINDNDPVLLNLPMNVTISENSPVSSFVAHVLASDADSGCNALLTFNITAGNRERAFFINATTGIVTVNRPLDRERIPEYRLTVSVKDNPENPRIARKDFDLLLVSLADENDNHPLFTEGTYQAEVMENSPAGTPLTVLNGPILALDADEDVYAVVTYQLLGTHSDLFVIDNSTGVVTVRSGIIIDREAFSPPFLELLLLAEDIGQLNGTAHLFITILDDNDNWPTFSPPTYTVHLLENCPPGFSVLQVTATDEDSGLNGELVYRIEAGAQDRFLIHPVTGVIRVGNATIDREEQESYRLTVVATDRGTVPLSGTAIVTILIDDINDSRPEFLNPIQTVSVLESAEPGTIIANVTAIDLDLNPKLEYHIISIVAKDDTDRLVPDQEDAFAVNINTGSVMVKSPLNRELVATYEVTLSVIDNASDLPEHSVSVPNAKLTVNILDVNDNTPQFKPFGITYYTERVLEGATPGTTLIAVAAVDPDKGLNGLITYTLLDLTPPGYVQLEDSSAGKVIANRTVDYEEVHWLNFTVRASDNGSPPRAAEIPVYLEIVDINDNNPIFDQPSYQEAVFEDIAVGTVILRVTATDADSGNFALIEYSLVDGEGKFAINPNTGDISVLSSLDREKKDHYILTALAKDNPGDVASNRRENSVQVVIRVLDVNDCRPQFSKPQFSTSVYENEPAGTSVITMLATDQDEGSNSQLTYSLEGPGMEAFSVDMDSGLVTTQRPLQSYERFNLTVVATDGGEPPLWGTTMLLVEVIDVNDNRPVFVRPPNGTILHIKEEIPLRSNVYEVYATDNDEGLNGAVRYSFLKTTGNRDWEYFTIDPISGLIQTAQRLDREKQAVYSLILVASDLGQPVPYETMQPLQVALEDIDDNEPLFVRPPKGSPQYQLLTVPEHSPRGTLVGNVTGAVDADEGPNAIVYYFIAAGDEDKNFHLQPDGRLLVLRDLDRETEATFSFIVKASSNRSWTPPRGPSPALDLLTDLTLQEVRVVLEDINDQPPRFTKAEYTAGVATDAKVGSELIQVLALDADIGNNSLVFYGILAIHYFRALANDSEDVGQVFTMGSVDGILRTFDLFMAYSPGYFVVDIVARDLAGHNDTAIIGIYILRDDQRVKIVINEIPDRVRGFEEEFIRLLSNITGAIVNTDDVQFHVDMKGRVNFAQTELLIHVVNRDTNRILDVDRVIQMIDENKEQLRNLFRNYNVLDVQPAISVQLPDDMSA

B1: single-bond PCDH15 fusion protein (EC1-5/EC3-5 Fc heterodimer with one EC1-2 binding domain) (Fc fusion)
chain 1: not shown
chain 2: QGDDLGPMFLPCVLVPNTRDCRPLTYQAAIPELRTPEELNPILVTPPIQAIDQDRNIQPPSDRPGILYSILVGTPEDYPRFFHMHPRTAELTLLEPVNRDFHQKFDLVIKAEQDNGHPLPAFASLHIEILDENNQSPYFTMPSYQGYILESAPVGATISESLNLTTPLRIVALDKDIEDTKDPELHLFLNDYTSVFTVTPTGITRYLTLLQPVDREEQQTYTFLITAFDGVQESEPVVVNIRVMDANDNTPTFPEISYDVYVYTDMSPGDSVIQLTAVDADEGSNGEISYEILVGGKGDFVINKTTGLVSIAPGVELIVGQTYALTVQASDNAPPAERRHSICTVYIEVLPPNNQ
modifications: SNAPtag coupled to a benzylguanine DNA tether
- koff [1]: 0.5 ± 0.1 s⁻¹

B2: dimeric full-ectodomain PCDH15 fusion protein (Fc fusion)
chain: not shown
modifications: SNAPtag coupled to a benzylguanine DNA tether, or to BG-Biotin in some force-spectroscopy conditions
notes: protocadherin-15, mouse, the entire extracellular domain up to the last hydrophilic amino acid before the transmembrane domain (11 EC domains); The two halves carry opposing Fc heterodimerisation domains and the same cadherin ectodomain; also called full-length dimer; full-ectodomain mouse PCDH15; source: HEK Expi293 cells, co-transfected, secreted; purified (Ni-NTA or TALON, size-exclusion on …)
- kon [2]: 350000 M⁻¹ s⁻¹

B3: dimeric full-ectodomain PCDH15 R113G^+/+ fusion protein (both strands mutated) (Fc fusion)
chain: not shown
modifications: SNAPtag coupled to BG-Biotin (force spectroscopy without the DNA tether)
notes: A human hereditary deafness mutation put into the mouse protein by site-directed mutagenesis; also called homozygous R113G^+/+; source: HEK Expi293 cells, co-transfected, secreted; purified (Ni-NTA or TALON, size-exclusion on Superose 6 Increase)
- mean lifetime of the connection at zero force [2]: 37 s
